Laboratory results as given in US6825165B1, “Betacellulin modification” (Takeda Chemical Industries, Ltd., priority 1998, dated 2004).
Blank lines part the entries; values can stand above or below the molecule they belong to.

Legend:
[1] = system: AR42J cells; assay: β cell differentiation promoting activity using AR42J cells (anti-insulin immunofluorescence), Example 9; type: cell-based; conditions: 5 days incubation, anti-insulin antibody/FITC staining (FIG. 5)
From the text: Cells of the AR42J cell line derived from pancreatic cancer induced by chemical carcinogens (Christophe, Am. J. Physiol., 266: G963 (1994)) were suspended to a concentration of 10^5 cells/mL using Dulbecco's modified Eagle MEM medium containing 10% fetal calf serum and the Met-77 residue betacellulin prepared in Example 3, the Met-76 residue betacellulin prepared in Example 6, or the Met-80 residue betacellulin prepared in accordance with the method in Japanese Unexamined Patent Application (Kokai) H10-191989. 500 μL of these suspensions were inoculated to chamber slides and incubated for 5 days at 37° C. in carbon dioxide gas incubators (5% carbon dioxide gas, 95% air). After 5 days, the cells were washed once with PBS, fixed in 10% formaldehyde, and treated for 5 min with 0.1% Triton X-100. Block Ace (Snow Brand, Japan) was then added for 40 minutes of blocking at room temperature. Anti-insulin antibodies (by Advanced Immunochemicals) diluted with 10% Block Ace were added, and a reaction was performed for 40 minutes at room temperature. 0.1% Triton X-100 was added, the reaction solution was allowed to stand for 5 minutes at room temperature, and the cells were then washed three times with PBS. FITC (fluorescein isothiocyanate) labeled anti-mouse IgG antibodies (Cappel) diluted with 10% Block Ace were added, and a reaction was brought about for 40 minutes. 0.1% Triton X-100 was added, the reaction solution was allowed to stand for 5 minutes, the cells were then washed three times with PBS, and they were then observed under a fluorescent microscope.

[2] = target: T1, EGF receptor (A431 cells, high EGF receptor expression line) (Homo sapiens, UniProt P00533); assay: EGF binding assay using A431 cells (inhibition of 125I-EGF binding); conditions: for IC50: A431 cells, 0.25 nM 125I-EGF, 90 minutes at 4° C.; for EGF/BTC relative to Met-BTC80: ratio between EGF activity and BTC activity, Met-BTC80 = 100%
T1 construct: human squamous epithelial carcinoma cells A431 (high EGF receptor expression line); endogenous in cells; host or cells: A431 human squamous epithelial carcinoma cells (intact, adherent)
Protocol: Cell growth promoting activity was assayed by means of the inhibiting activity of binding to ^125I-EGF using human squamous epithelial carcinoma cells A431 (high EGF receptor expression line).
Specifically, 100 μL of A431 cells suspended to a concentration of 10^5 cells/mL using Dulbecco's modified Eagle MEM (DMEM) medium supplemented with 10% fetal calf serum were inoculated to 96 well plates and cultured for 2 days at 37° C. in carbon dioxide gas incubators (5% carbon dioxide gas and 95% air). […] The mixtures were allowed to stand for 90 minutes at 4° C., and then washed 3 times with 200 μL of binding medium, and the cells were lysed in 200 μL of 0.1 N sodium hydroxide aqueous solution containing 1% SDS. The cell lysate was then transferred to scintillation vials, 1 mL of Scintillator A (Wako Pure Chemicals) was added, and the inhibiting activity of binding to ^125I-EGF was assayed with a scintillation counter.

[3] = system: PLAP expression AR42J cells; assay: β cell differentiation promoting activity using human placenta alkaline phosphatase expression AR42J cells, Example 20; type: cell-based; conditions: 5 days incubation, read-out: BTC activity EC50
Protocol: 100 μL of these suspensions were inoculated to 96 well plates and incubated for 5 days at 37° C. in carbon dioxide gas incubators (5% carbon dioxide gas, 95% air). After 5 days, the culture supernatant were treated for 30 minutes at 65° C., and 50 μL was then added to 96-well microplates containing 50 μL of 2×SEAP (2M diethanolamine, 1 mM MgCl2, 20 mM homoarginine). 10 μL of 20 mg/mL p-nitrophenylphosphoric acid (Sigma) was added, and a reaction was brought about for 16 hours at 37° C. The ratio between EGF activity and the BTC activity of all the muteins decreased to about 5% of that of the Met-80 residue betacellulin, and was about the same as that of the Met-76 residue betacellulin, with no apparent influence by the N terminal deletion.

[4] = system: PLAP expression AR42J cells; assay: Selection of PLAP expression AR42J clones: alkaline phosphatase activity with and without betacellulin; type: cell-based; conditions: 20 ng/mL Met-80 residue betacellulin, 4 days culture
Protocol: (§1) The differentiation promoting activity into β cells was also determined using AR42J cells transformed with the vector having alkaline phosphatase which had been ligated as a reporter downstream of the insulin promoter. Specifically, cells which have differentiated into β cells by addition of betacellulin produce alkaline phosphatase. As a result, by assaying the alkaline phosphatase activity, the differentiation promoting activity into β cells can be quantitatively assayed.
The pMCneopolyA plasmid (Stratagene) containing the neor gene of TnS and the PLAP expression plasmid pTB1898 were simultaneously introduced into AR42J cells using the transfection reagent TransIT™-LT1 (Mirus, PenVera Corporation). The plasmid introduced cells were then cultured for 2 days in DMEM supplemented with 10% fetal calf serum, and the culture was then continued in selection medium supplemented with 800 μg/mL G418 (geneticin, Gibco BRL). Clones were isolated by limiting dilution of cells growing with G418 resistance.
Cells of each clone were seeded to 24 well plates and cultured for 4 days with and without the addition of 20 ng/mL Met-80 residue betacellulin. The supernatant was collected and heat treated for 30 minutes at 65° C., and the alkaline phosphatase activity in the media was then assayed. Clones showing increased alkaline phosphatase activity with the addition of 80-residue betacellulin were selected.

[5] = target: T2, EGF receptor on human squamous epithelial carcinoma cells A431 (human, UniProt P00533 25-1210); assay: competition with 0.25 nM 125I-EGF on A431 cells
T2 construct: whole, on cells; also called A431 cells (high EGF receptor expression line)
Protocol: The mixtures were allowed to stand for 90 minutes at 4° C., and then washed 3 times with 200 μL of binding medium, and the cells were lysed in 200 μL of 0.1 N sodium hydroxide aqueous solution containing 1% SDS.

[6] = system: AR42J cells; assay: β cell differentiation promoting activity using AR42J cells (anti-insulin immunofluorescence), Example 26; type: cell-based; conditions: 5 days incubation
Protocol: Cells of the AR42J cell line derived from pancreatic cancer induced by chemical carcinogens (Christophe, Am. J. Physiol., 266: G963 (1994)) were suspended to a concentration of 10^5 cells/mL in Dulbecco's modified Eagle MEM medium containing 10% fetal calf serum and one of hBTC50, Mutein A, Mutein B, or the 80-residue betacellulin (hBTC80) prepared in accordance with the method in Japanese Unexamined Patent Application (Kokai) H10-191989. 500 μL of these suspensions was inoculated on chamber slides and incubated for 5 days at 37° C. in carbon dioxide gas incubators (5% carbon dioxide gas, 95% air). After 5 days, the cells were washed once with PBS, fixed in 10% formaldehyde, and treated for 5 min with 0.1% Triton X-100. Block Ace (Snow Brand, Japan) was then added for 40 minutes of blocking at room temperature. Anti-insulin antibodies (by Advanced Immunochemicals) diluted with 10% Block Ace were added, and reacted for 40 minutes at room temperature. 0.1% Triton X-100 was added, the reaction solution was allowed to stand for 5 minutes at room temperature, and the cells were then washed three times with PBS. FITC (fluorescein isothiocyanate) labeled anti-mouse IgG antibodies (Cappel) diluted with 10% Block Ace were added, and a reaction was brought about for 40 minutes. 0.1% Triton X-100 was added, the reaction solution was allowed to stand for 5 minutes, the cells were then washed three times with PBS, and they were then observed under a fluorescent microscope.

[7] = system: PLAP expression AR42J cells; assay: β cell differentiation promoting activity using PLAP expression AR42J cells, Example 12; type: cell-based; conditions: 5 days, varying concentrations (FIG. 6)
Protocol: as §1
The PLAP expression AR42J cells constructed in Example 11 were suspended to a concentration of 10^5 cells/mL using Dulbecco's modified Eagle MEM medium containing 10% fetal calf serum and varying concentrations of the Met-77 residue betacellulin prepared in Example 3, the Met-76 residue betacellulin prepared in Example 6, or the Met-80 residue betacellulin prepared in accordance with the method in Japanese Unexamined Patent Application (Kokai) H10-191989. 100 μL of these suspensions were inoculated to 96 well plates and incubated for 5 days at 37° C. in carbon dioxide gas incubators (5% carbon dioxide gas, 95% air). After 5 days, the supernatant was taken and treated for 30 minutes at 65° C., and 50 μL was added to 96-well microplates containing 50 μL of 2×SEAP (2M diethanolamine, 1 mM MgCl2, 20 mM homoarginine). […]

Molecule: BTC2-76: betacellulin mutein lacking one N terminal residue and four C terminal residues, SEQ ID NO: 37
EC50 [3]: 0.12 nM

Molecule: BTC24-76: betacellulin mutein lacking 23 N terminal residues and four C terminal residues, SEQ ID NO: 38
EC50 [3]: 0.03 nM

B2: Met-77 residue betacellulin: 77 residue betacellulin lacking three C terminal residues (SEQ ID NO: 1) with N terminal Met (protein)
chain: DGNSTRSPETNGLLCGDPEENCAATTTQSKRKGHFSRCPKQYKHYCIKGRCRFVVAEQTPSCVCDEGYIGARCERVD
modifications: N-terminal Met; Human
Differentiation into insulin-producing β cells (stained cells under fluorescent microscope) [1]: cells which had differentiated into insulin-producing β cells were found | Promoting activity in inducing differentiation compared with Met-80 residue betacellulin [7]: virtually the same promoting activity in inducing differentiation as the Met-80 residue betacellulin

B3: Met-76 residue betacellulin (ligand)
chain: MDGNSTRSPETNGLLCGDPEENCAATTTQSKRKGHFSRCPKQYKHYCIKGRCRFVVAEQTPSCVCDEGYIGARCERV
notes: Lacks the four C-terminal residues (Asp Leu Phe Tyr); also called Met-BTC76; BTC1-76
IC50 [5]: 95.1 nM

The next lines start with results.

IC50 [2]: 1.2 nM | EGF/BTC relative to Met-BTC80 [2]: 100.0% | EC50 [3]: 0.07 nM
Molecule: Met-BTC80: 80 residue human betacellulin (SEQ ID NO: 35) with N terminal Met, prepared by the method of Kokai H10-191989 [reference compound]
Differentiation into insulin-producing β cells (stained cells under fluorescent microscope) [1]: cells which had differentiated into insulin-producing β cells were found | PLAP activity (A 405), BTC added ([4]; clone AR1898-033, no BTC added: 0.034): 0.366 A 405 | PLAP activity (A 405), BTC added ([4]; clone AR1898-053, no BTC added: 0.008): 0.089 A 405 | PLAP activity (A 405), BTC added ([4]; clone AR1898-0192, no BTC added: 0.077): 0.752 A 405

IC50 [5]: 1.2 nM
B1: Met-80 residue betacellulin (ligand)
chain: MDGNSTRSPETNGLLCGDPEENCAATTTQSKRKGHFSRCPKQYKHYCIKGRCRFVVAEQTPSCVCDEGYIGARCERVDLFY
notes: Prepared in E. coli by the method of Japanese Kokai H10-191989; The N-terminal Met is retained; also called Met-BTC80; hBTC80
Differentiation into insulin-producing β cells (stained cells under fluorescent microscope) ([6]; anti-insulin antibody/FITC staining): cells which had differentiated into insulin-producing β cells, were found | Incidence of insulin-producing cells ([6]; comparison between the proteins): no differences in the incidence of insulin-producing cells

IC50 [2]: 95.1 nM | EGF/BTC relative to Met-BTC80 [2]: 5.4% | EC50 [3]: 0.3 nM
B4: Met-BTC76: 76 residue betacellulin lacking four C terminal residues (SEQ ID NO: 2) with N terminal Met (protein)
chain: DGNSTRSPETNGLLCGDPEENCAATTTQSKRKGHFSRCPKQYKHYCIKGRCRFVVAEQTPSCVCDEGYIGARCERV
modifications: N-terminal Met; Human
Differentiation into insulin-producing β cells (stained cells under fluorescent microscope) [1]: cells which had differentiated into insulin-producing β cells were found | Promoting activity in inducing differentiation compared with Met-80 residue betacellulin [7]: virtually the same promoting activity in inducing differentiation as the Met-80 residue betacellulin
